In publication PMC2630241:
Values joined by “and” are separate entries in the source; they are usually repeats but may differ in a detail not shown here. Equal entries are not always repeated.

How the values were obtained:
[1] = molecular target: Selenomethionine substituted TRPM7cc (rat) (UniProt Q925B3); assay: crystal structure
[2] = molecular target: TRPM7 coiled-coil assembly domain (TRPM7cc), rat TRPM7 residues 1230-1282 (rat) (UniProt Q925B3); assay: SEC
[3] = molecular target: TRPM7 coiled-coil assembly domain (TRPM7cc), rat TRPM7 residues 1230-1282 (rat) (UniProt Q925B3); assay: AUC
[4] = molecular target: TRPM7 coiled-coil assembly domain (TRPM7cc), rat TRPM7 residues 1230-1282 (rat) (UniProt Q925B3); assay: crystal structure

| stoichiometry N [1] | stoichiometry N [2] | stoichiometry N [3] | stoichiometry N [4] | Substance |
| --- | --- | --- | --- | --- |
| 4 | – | – | – | Selenomethionine substituted TRPM7cc (from UniProt Q925B3 1230-1282) (domain or fragment) |
| – | 4 | 4.1 and 3.7 | 4 | TRPM7 coiled-coil assembly domain (TRPM7cc), rat TRPM7 residues 1230-1282 (from UniProt Q925B3 1230-1282) (domain or fragment) |
